Key:
[1] = previously reported; ref [S3]; cited from earlier work
Protocol: Supplementary file pone.0067961.s005.tif: Figure S4 Concentration dependency of the analytical SEC chromatograms of the 'C-term' variant. The protein concentrations used were 1µM (black line), 2µM (orange line), 5 µM (pink line), 10 µM (cyan line), 70 µM (red line) and 125 µM (green line). Essentially the same elution profile was found for all the protein concentrations used. At the top the chromatogram the previously reported Stokes radii of the standard proteins used to calibrate the column are reported: conalbumin (40.4 Å), ovalbumin (30.5 Å), carbonic anhydrase (23.6 Å) [S3], ribonuclease ...

[2] = Thermal denaturation monitored by far-UV CD; assay type: physicochemical, human
Protocol: Protein structural stability was analyzed by monitoring the CD signal at 222 nm upon thermal denaturation. Thermal runs were performed from 5 to 90 °C at a rate of 1 °C. min^-1. Data points were acquired every 0.1 °C with a response time of 2 s and a bandwidth of […]. After thermal denaturation, each protein sample was cooled to the starting temperature, and a second denaturation curve recorded in order to analyse the degree of reversibility of the denaturation process. Analysis of the thermal unfolding curves was performed assuming a three-state unfolding model.

[3] = Secondary structure content from far-UV CD; assay type: physicochemical, human; conditions: K2D software; 20 µM protein, 7 mM Tris pH 7.4, 170 mM KCl, 5 mM MgCl2; 25 °C
Protocol: Far-UV CD spectra for all protein variants were recorded using a Jasco J-810 spectropolarimeter equipped with a Peltier holder, using a 0.1 cm path length cuvette. Typically, samples contained 20 µM protein in 7 mM Tris buffer at pH 7.4, containing 170 mM KCl and 5 mM MgCl2. The far-UV CD spectra of all the variants in their native, thermally denatured and refolded states were recorded from 198 to 250 nm, and the spectrum of the buffer was systematically subtracted from the spectra of all protein samples. The secondary structure content was estimated from the far-UV CD spectrum for each protein variant using K2D software.

[4] = Tryptophan (W580) fluorescence emission; assay type: physicochemical, human; conditions: W580, excitation 295 nm
Protocol: Steady-state tryptophan fluorescence emission spectra of native, thermally denatured and refolded proteins were recorded from 300 to 400 nm, selectively exciting the only tryptophan residue in the SBD (W580) at 295 nm, using a Cary Eclipse spectrofluorimeter (Varian, Palo Alto, CA, USA). Excitation and emission band-passes were set to 5 nm each.

[5] = Analytical SEC, Stokes radius and oligomeric state; assay type: physicochemical, human
Protocol: (§1) Analytical SEC was performed at 4 °C using a Superdex 75 10/300 GL column (GE Healthcare LifeSciences, Little Chalfont, U.K.), which had previously been calibrated using a mixture of standard proteins (Gel Filtration LMW Calibration Kit; GE Healthcare LifeSciences, Little Chalfont, U.K.). Typically, samples of the various constructs contained 70 µM of protein in 50 mM Tris buffer at pH 7.4, with 150 mM KCl, 5 mM MgCl2 and were incubated for 15 min (unless otherwise specified) at room temperature before being loaded onto the column for analysis. To evaluate the reversibility of the oligomerization process, the different elution peaks obtained for each protein variant were subsequently analyzed after concentrating the different fractions using AmiconUltra-0.5, Ultracel-3 Membrane, 3 kDa (Millipore, Bedford, MA, USA). A similar analysis was also performed at 6 µM concentration for all the protein variants to allow for a direct comparison between the results obtained by SEC and MS experiments.

[6] = Analytical SEC relative populations of oligomeric forms; assay type: physicochemical, human; conditions: Superdex 75, 4 °C, 50 mM Tris pH 7.4, 150 mM KCl
Protocol: as §1
The influence of substrate binding on the oligomerization properties of all the variants was examined by using the well-characterized Hsp70 substrate, the NR peptide (NRLLLTG, Genemed Synthesis Inc., San Antonio, TX, USA). A 14-fold excess of the peptide was added in each case to a fresh protein sample, incubated for 1 h at room temperature, unless otherwise specified, and then loaded onto the Superdex 75 10/300 GL column for analysis. The relative quantities of the different protein species were estimated by analysing the chromatographic profile using a Gaussian function for each elution peak (OriginPro 8, Originlab, Northampton, MA, USA) and measuring the relative area under each peak.

[7] = nESI-MS relative populations of oligomeric forms; assay type: physicochemical, human; conditions: 6-15 µM protein, 150 mM ammonium acetate, pH 7.4, estimated error 5% (SD of 3-4 independent experiments)
Protocol: Prior to MS analysis, samples were buffer exchanged into 150 mM ammonium acetate, pH 7.4, using Micro Bio-spin 6 columns (Bio-Rad, Digilab Division, Cambridge, MA, USA). For all the experiments protein concentrations ranging from 6 to 18 µM were used. In the case of the substrate binding experiments, proteins were analyzed in the presence of a 1: 1 molar ratio of the NR peptide; this substrate concentration, lower than in the SEC experiments, was chosen to ensure adequate resolution of the various charge state series, which is critical for unambiguous assignment of substrate-bound states. Due to suppression effects during nESI ionization, a relatively limited set of molar ratios could be investigated by in this way.
nESI-MS spectra were obtained according to a previously published protocol on an orthogonal time-of-flight mass spectrometer with a Z-spray source (LCT, Waters, Manchester, UK) in positive ion mode using the following parameters: capillary voltage, 1500 V; sample cone voltage, 120 V (unless otherwise specified); extraction cone voltage, 1V; and ion transfer stage pressure, 8.8 mbar. Spectra were calibrated externally using a 33 mg/ml solution of cesium iodide. Data were acquired and processed with MassLynx software (Waters, Manchester, UK), and are shown with minimal smoothing and without background subtraction. The relative abundances of the different oligomeric states were estimated from the intensities of the most abundant charge states for each construct and are expressed as a percentage of the total intensity.

[8] = 70 µM protein, 5 mM MgCl2, 15 min at room temperature, estimated error 3.5% (SD of 3-4 independent experiments)
[9] = 6-15 µM protein, 5 mM MgCl2, estimated error 3.5% (SD of 3-4 independent experiments)

B1: ovalbumin: SEC standard protein (protein, UniProt P01012 2-386, looked up)
Ovalbumin: GSIGAASMEFCFDVFKELKVHHANENIFYCPIAIMSALAMVYLGAKDSTRTQINKVVRFDKLPGFGDSIEAQCGTSVNVHSSLRDILNQITKPNDVYSFSLASRLYAEERYPILPEYLQCVKELYRGGLEPINFQTAADQARELINSWVESQTNGIIRNVLQPSSVDSQTAMVLVNAIVFKGLWEKAFKDEDTQAMPFRVTEQESKPVQMMYQIGLFRVASMASEKMKILELPFASGTMSMLVLLPDEVSGLEQLESIINFEKLTEWTSSNVMEERKIKVYLPRMKMEEKYNLTSVLMAMGITDVFSSSANLSGISSAESLKISQAVHAAHAEINEAGREVVGSAEAGVDAASVSEEFRADHPFLFCIKHIATNAVLFFGRCVSP
For B1, the “Stokes radius of SEC standard protein” value [1] is given as 30.5 Å.

B2: conalbumin: SEC standard protein (protein, UniProt P02789 20-705, looked up)
Ovotransferrin: APPKSVIRWCTISSPEEKKCNNLRDLTQQERISLTCVQKATYLDCIKAIANNEADAISLDGGQAFEAGLAPYKLKPIAAEVYEHTEGSTTSYYAVAVVKKGTEFTVNDLQGKTSCHTGLGRSAGWNIPIGTLLHRGAIEWEGIESGSVEQAVAKFFSASCVPGATIEQKLCRQCKGDPKTKCARNAPYSGYSGAFHCLKDGKGDVAFVKHTTVNENAPDQKDEYELLCLDGSRQPVDNYKTCNWARVAAHAVVARDDNKVEDIWSFLSKAQSDFGVDTKSDFHLFGPPGKKDPVLKDLLFKDSAIMLKRVPSLMDSQLYLGFEYYSAIQSMRKDQLTPSPRENRIQWCAVGKDEKSKCDRWSVVSNGDVECTVVDETKDCIIKIMKGEADAVALDGGLVYTAGVCGLVPVMAERYDDESQCSKTDERPASYFAVAVARKDSNVNWNNLKGKKSCHTAVGRTAGWVIPMGLIHNRTGTCNFDEYFSEGCAPGSPPNSRLCQLCQGSGGIPPEKCVASSHEKYFGYTGALRCLVEKGDVAFIQHSTVEENTGGKNKADWAKNLQMDDFELLCTDGRRANVMDYRECNLAEVPTHAVVVRPEKANKIRDLLERQEKRFGVNGSEKSKFMMFESQNKDLLFKDLTKCLFKVREGTTYKEFLGDKFYTVISSLKTCNPSDILQMCSFLEGK
In the case of B2, the “Stokes radius of SEC standard protein” value [1] is listed as 40.4 Å.

B3: C-term: truncated human Hsp70 (540-641), C-terminal segment of helix B, helices C-E and disordered C-terminal region (protein, UniProt P0DMV8 540-641, looked up, fragment)
chain: NALESYAFNMKSAVEDEGLKGKISEADKKKVLDKCQEVISWLDANTLAEKDEFEHKRKELEQVCNPIISGLYQGAGGPGPGGFGAQGPKGGSGSGPTIEEVD
For B3, the “∆Hm, 1st transition” value ([2]; CD 222 nm, 20 µM protein, 7 mM Tris pH 7.4, 170 mM KCl, 5 mM MgCl2, three-state fit (C-term two-state), SE of fit) was 51.5 ± 1.5 kcal/mol, the “Tm, 1st transition” value ([2]; CD 222 nm, 5 to 90 °C at 1 °C/min, 20 µM protein, 7 mM Tris pH 7.4, 170 mM KCl, 5 mM MgCl2, three-state fit (C-term two-state), SE of fit) was 49.9 ± 0.2 °C and the “Reversibility of thermal unfolding” value ([2]; far-UV CD, second denaturation curve after cooling) was “reversibly”. The “Random-coil content estimated from far-UV CD” value [3] was 33%, the “α-helix content estimated from far-UV CD” value [3] was 60% and the “β-sheet content estimated from far-UV CD” value [3] was 7%. For the same molecule, the “Red-shift of fluorescence emission maximum, native to refolded” value [4] was “not observed”, the Oligomeric state ([5]; analytical SEC, 1 to 125 µM, single elution peak at 11.8 ml) was “monomeric” and the Stokes radius ([5]; analytical SEC, from retention volume) was 21.4 Å. The “Ability to dimerize in isolation” value ([5]; under experimental conditions used) was “unable to dimerize in isolation”, the Dimer population [6, 8] was 0% and the Monomer population [6, 8] was 100%. It also gave a Total oligomer population [6, 8] of 0%, a Dimer population [6, 9] of 0% and a Monomer population [6, 9] of 100%. It also gave a Total oligomer population [6, 9] of 0%, a Dimer population [7] of 0% and a Total oligomer population [7] of 0%. For the same molecule, the Trimer population [7] was 0%.

B4: ribonuclease A: SEC standard protein (protein, UniProt P61823 27-150, looked up)
Ribonuclease pancreatic: KETAAAKFERQHMDSSTSAASSSNYCNQMMKSRNLTKDRCKPVNTFVHESLADVQAVCSQKNVACKNGQTNCYQSYSTMSITDCRETGSSKYPNCAYKTTQANKHIIVACEGNPYVPVHFDASV
For B4, the “Stokes radius of SEC standard protein” value [1] is given as 16.4 Å.
